In general, stoichiometry N refers to the number of molecules, sites or subunits per partner or assembly.

The values below come from PMC2879331 (Clinical cancer research : an official journal of the …, 2008).

The data set deals with the molecule itself. Description: non-reducing SDS-PAGE.

B1: matrix metalloprotease 9 (MMP-9) (enzyme)
chain: not shown
For B1, the “stoichiometry N” value came to 2.
